In publication PMC7866087, “Evaluation of Computationally Designed Peptides against TWEAK, a Cytokine of the Tumour Necrosis Factor Ligand Family” (International Journal of Molecular Sciences, 2021):

Key:
[1] = test system: BRV5 cells, Fn14 gene expression; assay: Fn14 gene expression with TWEAK, BRV5 (RT-PCR); type: cell-based, human; conditions: for Normalized level of expression of Fn14 gene: BRV5, TWEAK 25 ng/ml
Experimental: Figure 1 Characterization TWEAK-dependent/not dependent cells. (A) Representative images of Fn14 expression (pink) in BRV5, 435-P and HT29 cells labelled by immunofluorescence. The protein has similar expression in BRV5 and the positive control HT29 cells, and less expressed in 435-P. DAPI (blue) was used for nucleus identification. (B) RT-PCR analysis to quantify Fn14 gene expression of cells cultured in the presence (dark green) or absence (light green) of TWEAK (25 ng/mL) at 48 h. Up-regulation of Fn14 is observed only in HT29 and BRV5 cells. Bars and error bars represent the average and standard deviation as calculated from three replicates respectively. P values represented as: * - significant (Pvalue: 0.01 to 0.05) and **- very-significant (Pvalue: 0.001 to 0.01).
Since the transcriptional activation of Fn14 expression can be induced in cancer cells by the TWEAK-Fn14 interaction, either in a paracrine or autocrine manner, we investigated whether TWEAK transactivates Fn14 (TNFR2F12A) in BRV5 brain metastatic cells. We primed cells with TWEAK and analysed TNFR2F12A gene expression including in the analysis 435-Br1 cells, the first generation of brain metastatic cells BRV5.
(§1) Three different cell lines were used in this study: BRV5, MDA-MB 435 (435-P), and HT29. The BRV5 is a highly metastatic brain cell line, obtained in one of our laboratories by primary culture from a brain of a nude mouse inoculated with human 435-Br1 brain metastatic cells, as previously described and used as a model to test the peptides in cell cultures. […] The triple negative 435-P cell line is a useful human breast cancer model that expresses both epithelial and melanocytic markers, and was included as the parental cell from which 435-Br1 metastatic variant was initially originated (both cell lines kindly provided by Dr Fabra at IDIBELL Institute, Hospitalet de Llobregat, Spain). Finally, HT29 human colon carcinoma cells obtained from the European Type Culture Collection (ECACC 91072201) were used as a positive control of TWEAK dependent Fn14 over-expressing cells to evaluate TWEAK-Fn14 axis of brain metastatic variants.

[2] = test system: TWEAK-Fn14 signalling pathway, BRV5 cells; assay: Cell-based screening of pooled peptides, gene expression microarray in TWEAK-stimulated BRV5 cells; design: species or system human; conditions: 6 h; for BIRC2 expression Z-Score / HSP90B1 expression Z-Score / IL6 expression Z-Score / JUN expression Z-Score / MAP4K4 expression Z-Score / MAPK14 expression Z-Score / NFKB2 expression Z-Score / TNFRSF12A expression Z-Score / TRAF2 expression Z-Score: BRV5 + TWEAK, normalized to NARS2
Experimental: To optimize resources and rationalize the analysis, we ran the screening by pooling the 50 peptides into six groups, i.e., Pool 1 to 6, containing […] peptides each and displaying similar MW (Supplementary Materials Table S1). We monitored the activity of pooled peptides on TWEAK-Fn14 signalling pathways following the design described in Material and Methods. BRV5 cells were cultured in the presence or absence of TWEAK and treated with peptides at different time points.
As a preliminary study, we performed an experiment with 435-P and BRV5 cells to assess the effect on the level of expression on the selected genes in cultures with or without TWEAK (Supplementary Materials Figure S2A). Negative controls without pool 1 peptides were included in the protocol to avoid unspecific biases in the inhibition ratio. To achieve optimal conditions to measure peptide activity, preventing peptide degradation in the culture medium, the effect of peptides was evaluated by priming cultures with peptide every hour (0–5 h), every two hours (0, 2, and 4 h) and every three hours (0 and 3 h). In these experiments, the housekeeping gene NARS2 was used to normalize gene expression.
as §1
Appropriate cell culture conditions were established as the controls needed in the expression of genes with and without peptides and with and without TWEAK activation, both as pools and individually (see Supplementary Materials Figure S2). The protocol started with the seeding of 125,000 cells/well in 500 µL of culture media supplemented with 10% fetal bovine serum (CM+FBS10%) in 24-well dishes for 24 h before removing FBS (CM-FBS). After overnight starvation in CM-FBS culture, different peptide treatment conditions (at final concentration of 450 µM) were established in the presence or absence of TWEAK (25 ng/mL final concentration) (Peprotech EC, Ltd., London, UK). Some cells were treated with peptides at a single, unique, initial dose (time 0) while other were treated with repeated doses to account for the effect cell-culture degradation. These include a repeated treatment every hour (i.e., […]), every two hours (time 0, 2, and 4) and every three hours (time 0 and 3)—see Supplementary Materials Figure S2 for diagrammatic depiction. At time 6 (after six hours) cells were lysed and RNA extracted for transcriptomic analyses (see next). Cell were culture for six hours as this was the time needed to achieve the highest upregulation of the TWEAK-Fn14 axis upon TWEAK treatment as shown in previous time-course RT-PCR experiments (see Figure 2).
RNA from cells was extracted 6 h after treatments by direct lysis on the well. The RNeasy Micro kit (Qiagen, Hilden, Germany) was used to isolate total RNA from cell lysate following manufacturer’s protocols including an additional step of digestion with DNase I (Qiagen, Hilden, Germany). Total RNA concentration was measured in a NanoDrop 1000 spectrophotometer (Thermo Scientific, Waltham, MA, USA). […]

[3] = pools, BRV5 + TWEAK 25 ng/mL, 450 µM every hour

B1: tumour necrosis factor-like weak inducer of apoptosis (protein, UniProt O43508 94-249, looked up)
Tumor necrosis factor ligand …: SAPKGRKTRARRAIAAHYEVHPRPGQDGAQAGVDGTVSGWEEARINSSSPLRYNRQIGEFIVTRAGLYYLYCQVHFDEGKAVYLKLDLLVDGVLALRCLEEFSATAASSLGPQLRLCQVSGLLALRPGSSLRIRTLPWAHLKAAPFLTYFGLFQVH
[1]; technical replicate 1
  Normalized level of expression of Fn14 gene: 0.1340
[1]; technical replicate 2
  Normalized level of expression of Fn14 gene: 0.1202
[1]; technical replicate 3
  Normalized level of expression of Fn14 gene: 0.1441
[1]; TWEAK 25 ng/mL, 48 h, BRV5
  Fn14 transcriptional expression: significantly activated in BRV5 cells (p = 0.0031)
[2]; BRV5 + TWEAK 25 ng/mL, peptides 450 µM every hour, versus T
  regulation of probe genes by pooled peptides: higher level of expression overall when compared to untreated and unstimulated cells
[2]; TWEAK, BRV5
  downstream activation of MAP4K4 (NIK), TRAF2, and BIRC2 (IAP2): occurred at 6 h in BRV5 cells
[2]; [3]
  BIRC2 mRNA expression (normalized to NARS2): 1.448
  HSP90B1 mRNA expression (normalized to NARS2): 8.392
  IL6 mRNA expression (normalized to NARS2): 0.0007818
  JUN mRNA expression (normalized to NARS2): 0.04566
  MAP4K4 mRNA expression (normalized to NARS2): 0.7707
  MAPK14 mRNA expression (normalized to NARS2): 0.5877
  NFKB2 mRNA expression (normalized to NARS2): 0.193
  TNFRSF12A mRNA expression (normalized to NARS2): 0.06934
  TRAF2 mRNA expression (normalized to NARS2): 0.0999
[2]; pools
  BIRC2 expression Z-Score: 1.233
  HSP90B1 expression Z-Score: -0.5008
  IL6 expression Z-Score: -1.234
  JUN expression Z-Score: -1.012
  MAP4K4 expression Z-Score: -0.5276
  MAPK14 expression Z-Score: 0.2377
  NFKB2 expression Z-Score: -0.03742
  TNFRSF12A expression Z-Score: -0.4905
  TRAF2 expression Z-Score: 1.245
[2]; pools, listed as T
  BIRC2 expression Z-Score: 1.2334
  HSP90B1 expression Z-Score: -0.5008
  IL6 expression Z-Score: -1.2337
  JUN expression Z-Score: -1.0121
  MAP4K4 expression Z-Score: -0.5276
  MAPK14 expression Z-Score: 0.2377
  NFKB2 expression Z-Score: -0.0374
  TNFRSF12A expression Z-Score: -0.4905
  TRAF2 expression Z-Score: 1.2452
